This note sets out measurements from PMC10372118.

The experiment concerns the target truncated human ACE2 (residues 19-613 with a C-terminal AviTag and 6xHis-tag), biotinylated (human) (UniProt Q9BYF1). Kind of experiment: BLI. In general terms: In BLI a coated tip is dipped into the sample, and binding shifts an interference pattern.

Turning to “SARS-CoV-2 ancestral receptor-binding domain (RBD), recombinant (from UniProt P0DTC2) (domain or fragment)”, the t1/2 worked out at 1.39 min.
